Data published in patent publication US20240343800A1 (Merck KGaA, published 2024).

Tests used:
human ROR1 (on cells) [1] = molecular target: T1, human ROR1 (on cells) (human, UniProt Q01973 30-937); assay: cell-based or functional assay
human ROR1 (on cells) [2] = molecular target: T1, human ROR1 (on cells); assay: cell-based or functional assay; remark: listed apart in the source
[3] = molecular target: T2, mouse ROR1 (on 4T1 cells engineered to overexpress it) (mouse, UniProt Q9Z139 30-937); assay: cell-based or functional assay
human ROR1 (on cells) [4] = molecular target: T1, human ROR1 (on cells); assay: cell-based or functional assay; remark: listed apart in the source
[5] = molecular target: T2, mouse ROR1 (on 4T1 cells engineered to …); assay: cell-based or functional assay; remark: listed apart in the source
human ROR1 (on cells) [6] = molecular target: T1, human ROR1 (on cells); assay: cell-based or functional assay; remark: listed apart in the source
human ROR1 (on cells) [7] = molecular target: T1, human ROR1 (on cells); assay: cell-based or functional assay; remark: listed apart in the source
[8] = molecular target: T2, mouse ROR1 (on 4T1 cells engineered to …); assay: flow cytometry, 4T1 cells overexpressing mouse ROR1
human ROR1 (on cells) [9] = molecular target: T1, human ROR1 (on cells); assay: flow cytometry, MDA-MB-231 cells
Protocol: (§1) After washing twice with 200 μL of phosphate buffered saline (PBS) by centrifugation at 500×g for 5 minutes at room temperature, the cells were resuspended in 100 μL of Live/Dead fixable green working buffer (ThermoFisher Scientific, Cat No: L23101; one vial of Live/Dead fixable green powder was dissolved into 50 μL of DMSO and 1 μL of dissolved Live/Dead fixable green was added to 1 mL of PBS to prepare the working buffer). After 15-minutes of incubation at room temperature, the cells were washed twice with 200 μL of PBS by centrifugation at 500×g for 5 minutes at room temperature and resuspended in […] of 10% goat serum in BD staining buffer (BD Biosciences, Cat No: 554657). […] The plates were then covered with foil to avoid direct light and incubated for 60 minutes at 4° C. […] After incubating for 30 minutes at 4° C., the cells were washed twice with 200 μL of PBS by centrifugation at 500×g for 5 minutes at room temperature and resuspended into 100 μL of fixation buffer (BioLegend, Cat No: 420801). The samples were then analyzed on a flow cytometer for binding signal using FlowJo software. ROR and CD3 binding EC₅₀s (concentration vs mean fluorescence intensity (MFI)) for reference molecules and test bispecific TCEs were obtained using 4-parameter non-linear regression curve fitting in GraphPad Prism.

human ROR1 (on cells) [10] = molecular target: T1, human ROR1 (on cells); assay: cell-based or functional assay; remark: listed apart in the source
human ROR1 (on cells) [11] = molecular target: T1, human ROR1 (on cells); assay: flow cytometry, 4T1 cells overexpressing human ROR1
[12] = molecular target: T3, cynomolgus CD3 (on cynomolgus pan-T cells) (cynomolgus, UniProt Q95LI5 22-198); assay: flow cytometry, cynomolgus pan-T cells
T3 construct: whole, on cells
Protocol: as §1

human ROR1 (on cells) [13] = molecular target: T1, human ROR1 (on cells); assay: cell-based or functional assay; remark: listed apart in the source
human ROR1 (on cells) [14] = molecular target: T1, human ROR1 (on cells); assay: cell-based or functional assay; remark: listed apart in the source
[15] = molecular target: T4, human CD3 (on Jurkat T cells or human CD8+ T cells) (human, UniProt P07766 23-207; P09693 23-182; P04234 22-171; P20963 22-164); assay: flow cytometry, Jurkat T cells
T4 construct: Entries are printed with signal peptides; also called huCD3; CD3ε
Protocol: as §1

[16] = molecular target: T4, human CD3 (on Jurkat T cells or human …); assay: flow cytometry; reference: 69A02 and 82H02 TCEs in Format 1B
Protocol: (§2) The plates were then covered with foil to avoid direct light and incubated for 60 minutes at 4° C. […] After incubating for 30 minutes at 4° C., the cells were washed twice with 200 μL of PBS by centrifugation at 500×g for 5 minutes at room temperature and resuspended into 100 μL of fixation buffer (BioLegend, Cat No: 420801). The samples were then analyzed on a flow cytometer for binding signal using FlowJo software. ROR and CD3 binding EC₅₀s (concentration vs mean fluorescence intensity (MFI)) for reference molecules and test bispecific TCEs were obtained using 4-parameter non-linear regression curve fitting in GraphPad Prism.

[17] = molecular target: T5, chimeric CD3ε of human CD3 knock-in C57BL/6 mice (ectodomain of human CD3, transmembrane and cytosolic … (human; mouse, UniProt P07766 23-126; P22646 109-189); assay: flow cytometry, T cells of huCD3 knock-in C57BL/6 mice
T5 construct: extracellular domain;domain: transmembrane and cytosolic domains; On T cells isolated from the knock-in mice; also called human/mouse chimeric CD3; huCD3 knock-in
Protocol: as §2

[18] = molecular target: T4, human CD3 (on Jurkat T cells or human …); assay: flow cytometry, human CD8+ T cells; reference: 82H02 TCE #1 and #3
Protocol: as §2, with “After 15-minutes of incubation at room temperature, the cells were washed twice with 200 μL of PBS by centrifugation at 500×g for 5 minutes at room temperature and resuspended in […] of 10% goat serum in BD staining buffer (BD Biosciences, Cat No: 554657). […] The plates” for “The plates”

[19] = molecular target: T4, human CD3 (on Jurkat T cells or human …); assay: flow cytometry, human CD8+ T cells
Protocol: as §2, with “After 15-minutes of incubation at room temperature, the cells were washed twice with 200 μL of PBS by centrifugation at 500×g for 5 minutes at room temperature and resuspended in […] of 10% goat serum in BD staining buffer (BD Biosciences, Cat No: 554657). […] The plates” for “The plates”

[20] = molecular target: T4, human CD3 (on Jurkat T cells or human …); assay: flow cytometry; reference: 69A02 and 82H02 TCEs in Format 1A
Protocol: as §2

T4 sequence (P07766 23-207 limits assumed, chain 1 of 4): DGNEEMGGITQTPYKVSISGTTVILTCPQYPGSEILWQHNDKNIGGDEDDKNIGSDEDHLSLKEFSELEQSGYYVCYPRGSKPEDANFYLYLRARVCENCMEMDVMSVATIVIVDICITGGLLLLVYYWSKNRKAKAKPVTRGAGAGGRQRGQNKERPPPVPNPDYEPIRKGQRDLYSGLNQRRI
T4 sequence (P09693 23-182 limits assumed, chain 2 of 4): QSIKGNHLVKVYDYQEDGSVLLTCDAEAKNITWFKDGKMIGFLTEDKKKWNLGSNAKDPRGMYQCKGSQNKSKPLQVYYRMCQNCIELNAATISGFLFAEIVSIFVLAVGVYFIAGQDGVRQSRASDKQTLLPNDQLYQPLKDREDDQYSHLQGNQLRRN
T4 sequence (P04234 22-171 limits assumed, chain 3 of 4): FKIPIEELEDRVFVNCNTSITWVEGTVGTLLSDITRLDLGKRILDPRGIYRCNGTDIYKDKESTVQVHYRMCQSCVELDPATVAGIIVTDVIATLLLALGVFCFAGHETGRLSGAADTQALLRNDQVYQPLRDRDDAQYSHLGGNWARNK
T4 sequence (P20963 22-164 limits assumed, chain 4 of 4): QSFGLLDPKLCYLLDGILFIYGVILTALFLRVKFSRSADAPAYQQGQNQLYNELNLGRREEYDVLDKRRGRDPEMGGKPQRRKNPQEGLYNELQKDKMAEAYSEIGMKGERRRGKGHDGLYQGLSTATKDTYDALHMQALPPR
T3 sequence (Q95LI5 22-198): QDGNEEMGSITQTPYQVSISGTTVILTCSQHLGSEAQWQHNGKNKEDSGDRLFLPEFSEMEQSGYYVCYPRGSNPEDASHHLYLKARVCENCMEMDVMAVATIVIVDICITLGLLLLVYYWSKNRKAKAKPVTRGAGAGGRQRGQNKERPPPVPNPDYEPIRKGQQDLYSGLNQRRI
T5 sequence (P07766 other isoform, or with tags, fused parts or gaps mutant): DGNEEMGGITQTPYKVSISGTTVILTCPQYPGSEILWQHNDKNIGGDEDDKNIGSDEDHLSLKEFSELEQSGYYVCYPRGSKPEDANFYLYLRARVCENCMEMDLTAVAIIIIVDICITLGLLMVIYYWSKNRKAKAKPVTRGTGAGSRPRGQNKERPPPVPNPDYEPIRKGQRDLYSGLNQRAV

B1: bispecific TCE 82H02 in Format 1B (bispecific antibody)
chain 1: EIVLTQSPATLSLSPGERATLSCRASQSVSSYLAWYQQKPGQAPRLLIYDASNRATGIPARFSGSGSGTDFTLTISSLEPEDFAVYYCQQRSNWPPCTFGQGTRLEIKGGGGSGGGGSGGGGSGGGGSEVQLLESGGGLVQPGGSLRLSCAASGFTFTSYAMSWVRQAPGKGLEWVSTISGSGGGTYYTDSVKGRFTISRDNSKNTLYLQMNSLRAEDTAVYYCAQGSSIFDYWGQGTLVTVSSEPKSSDKTHTCPPCPAPEAAGGPSVFLFPPKPKDTLMISRTPEVTCVVVDVSHEDPEVKFNWYVDGVEVHNAKTKPREEQYNSTYRVVSVLTVLHQDWLNGKEYKCKVSNKALGAPIEKTISKAKGQPFRPEVHLLPPSREEMTKNQVSLTCLARGFYPKDIAVEWESNGQPENNYKTTPSRQEPSQGTTTFAVTSKLTVDKSRWQQGNVFSCSVMHEALHNHYTQKTISLSPGKGGGGSGGGGSGGGGSGGGGSEVQLVESGGGLVQPGGSLRLSCAASGFTFNTYAMNWVRQAPGKGLEWVARIRSKYNNYATYYADSVKDRFTISRDDSKNTLYLQMNSLRAEDTAVYYCVRHGNFGNSYVSWFAYWGQGTMVTVSSASTKGPSVFPLAPSSKSTSGGTAALGCLVKDYFPEPVTVSWNSGALTSGVHTFPAVLQSSGLYSLSSVVTVPSSSLGTQTYICNVNHKPSNTKVDKKVEPKSC
chain 2: EIVLTQSPATLSLSPGERATLSCRASQSVSSYLAWYQQKPGQAPRLLIYDASNRATGIPARFSGSGSGTDFTLTISSLEPEDFAVYYCQQRSNWPPCTFGQGTRLEIKGGGGSGGGGSGGGGSGGGGSEVQLLESGGGLVQPGGSLRLSCAASGFTFTSYAMSWVRQAPGKGLEWVSTISGSGGGTYYTDSVKGRFTISRDNSKNTLYLQMNSLRAEDTAVYYCAQGSSIFDYWGQGTLVTVSSEPKSSDKTHTCPPCPAPEAAGGPSVFLFPPKPKDTLMISRTPEVTCVVVDVSHEDPEVKFNWYVDGVEVHNAKTKPREEQYNSTYRVVSVLTVLHQDWLNGKEYKCKVSNKALGAPIEKTISKAKGQPREPQVYTLPPPSEELALNELVTLTCLVKGFYPSDIAVEWLQGSQELPREKYLTWAPVLDSDGSFFLYSILRVAAEDWKKGDTFSCSVMHEALHNHYTQKSLDRSPGK
chain 3: QAVVTQEPSLTVSPGGTVTLTCRSSTGAVTTSNYANWVQQKPGQAPRGLIGGTNKRAPGTPARFSGSLLGGKAALTLSGVQPEDEAEYYCALWYSNLWVFGGGTKLTVLGQPKAAPSVTLFPPSSEELQANKATLVCLISDFYPGAVTVAWKADSSPVKAGVETTTPSKQSNNKYAASSYLSLTPEQWKSHRSYSCQVTHEGSTVEKTVAPTECS
EC50 of IFNγ release, human CD8+ T cells + ROR1+ MDA-MB-231 (human ROR1 (on cells) [1]): 0.0889 nM
EC50 of target cell killing (TDCC), human CD8+ T cells + ROR1+ MDA-MB-231 (human ROR1 (on cells) [2]): 0.0581 nM
IFNγ release EC50, hCD3 KI splenocytes: mROR1+ 4T1 cells [3]: 0.14 nM
IFNγ release EC50, hCD3 KI splenocytes: hROR1+ 4T1 cells (human ROR1 (on cells) [4]): > 0.3 nM
TDCC EC50, hCD3 KI splenocytes: mROR1+ 4T1 cells [5]: 0.0215 nM
TDCC EC50, hCD3 KI splenocytes: hROR1+ 4T1 cells (human ROR1 (on cells) [6]): 0.185 nM
TDCC EC50, PBMCs + ROR1+ MDA-MB-231 cells (human ROR1 (on cells) [7]): 0.0766 nM
EC50 [8]: 2.01 nM
EC50 (human ROR1 (on cells) [9]): 2.23 nM
IFNγ release EC50, PBMCs + ROR1+ MDA-MB-231 cells (human ROR1 (on cells) [10]): 7.12 nM
EC50 (human ROR1 (on cells) [11]): 0.7 nM
EC50 [12]: 34.9 nM
TDCC EC50, cynomolgus CD8+ T cells + ROR1+ MDA-MB-231 (human ROR1 (on cells) [13]): 0.0548 nM
TDCC EC50, human CD8+ T cells + ROR1+ MDA-MB-231 (human ROR1 (on cells) [13]): 0.0237 nM
IFNγ release EC50, cynomolgus CD8+ T cells + ROR1+ MDA-MB-231 (human ROR1 (on cells) [14]): 0.191 nM
IFNγ release EC50, human CD8+ T cells + ROR1+ MDA-MB-231 (human ROR1 (on cells) [14]): 0.104 nM
EC50 [15]: 67.3 nM

B2: bispecific reference T cell-binder (bispecific antibody)
light: ELVLTQSPSVSAALGSPAKITCTLSSAHKTDTIDWYQQLQGEAPRYLMQVQSDGSYTKRPGVPDRFSGSSSGADRYLIIPSVQADDEADYYCGADYIGGYVFGGGTQLTVLGQPKAAPSVTLFPPSSEELQANKATLVCLISDFYPGAVTVAWKADSSPVKAGVETTTPSKQSNNKYAASSYLSLTPEQWKSHKSYSCQVTHEGSTVEKTVAPTECS
heavy 1: not shown
heavy 2: QEQLVESGGRLVTPGGSLTLSCKASGFDFSAYYMSWVRQAPGKGLEWIATIYPSSGKTYYATWVNGRFTISSDNAQNTVDLQMNSLTAADRATYFCARDSYADDGALFNIWGPGTLVTISSASTKGPSVFPLAPSSKSTSGGTAALGCLVKDYFPEPVTVSWNSGALTSGVHTFPAVLQSSGLYSLSSVVTVPSSSLGTQTYICNVNHKPSNTKVDKKVEPKSCDKTHTCPPCPAPEAAGGPSVFLFPPKPKDTLMISRTPEVTCVVVDVSHEDPEVKFNWYVDGVEVHNAKTKPREEQYNSTYRVVSVLTVLHQDWLNGKEYKCKVSNKALGAPIEKTISKAKGQPREPQVCTLPPSRDELTKNQVSLSCAVKGFYPSDIAVEWESNGQPENNYKTTPPVLDSDGSFFLVSKLTVDKSRWQQGNVFSCSVMHEALHNHYTQKSLSLSPGK
chain: QAVVTQEPSLTVSPGGTVTLTCGSSTGAVTTSNYANWVQEKPGQAFRGLIGGTNKRAPGTPARFSGSLLGGKAALTLSGAQPEDEAEYYCALWYSNLWVFGGGTKLTVLSSASTKGPSVFPLAPSSKSTSGGTAALGCLVKDYFPEPVTVSWNSGALTSGVHTFPAVLQSSGLYSLSSVVTVPSSSLGTQTYICNVNHKPSNTKVDKKVEPKSC
notes: ROR1 x CD3 bispecific of four polypeptides
fold lower apparent binding affinity [16]: ~4 fold
EC50 [17]: 259 nM
fold lower affinity [18]: ~100 fold
EC50 [19]: 266 nM
fold lower apparent binding affinity [20]: ~15 fold
EC50 [15]: 157 nM
